# Reference: article PMC4670554 (Nuclear medicine and biology, 2014)
# Columns and labels:
# [1] = test system: U87MG gliobastoma tumors; assay: in vivo; parameters: species or system mice; conditions: mouse
# [2] = in vivo; parameters: species or system mice; conditions: female, athymic nu/nu nude, mouse, total radioactivity
smiles,measurement,setting,value
"N=C(N)NCCC[C@@H]1NC(=O)[C@H](CCCCNC(=S)Nc2ccc(CCCCCC(CN3CCN(CC(=O)O)CCN(CC(=O)O)CC3)N(CC(=O)O)CC(=O)O)cc2)NC(=O)[C@@H](Cc2ccc(O)cc2)NC(=O)[C@H](CC(=O)O)NC(=O)CNC1=O (stereo partly shown) [^177Lu-5p-C-NETA-c(RGDyK), metal not drawn]",Radioactivity in the blood,[1],completely cleared
same,tissue uptake at 4 h,"[2]; 100 ug, Tumor uptake, blocked",0.6 ± 0.14 %ID/g
same,tissue uptake at 1 h,[2]; Liver uptake,1.59 ± 0.22 %ID/g
same,tissue uptake at 24 h,[2]; Liver uptake,0.32 ± 0.06 %ID/g
same,tissue uptake at 1 h,[2]; Radioactivity in the blood,0.46 ± 0.06 %ID/g
same,tissue uptake at 4 h,[2]; Tumor uptake,1.15 ± 0.27 %ID/g
same,tissue uptake at 24 h,[2]; Tumor uptake,10.7 ± 0.38 %ID/g
